According to publication PMC4559334:

Assays:
Test in all cases: EMSA
Details in all cases: not stated in the material held
[1] = system: AlaRS full-length (Escherichia coli)
[2] = system: C-Ala (Escherichia coli)
[3] = system: ED-C-Ala (Escherichia coli)

## tRNAAla, 3'-labelled
[1]
  Kd: 3000 nM
[2]
  Kd: 800 nM
[3]
  Kd: 2200 nM
